± gives the standard deviation of the averaged measurements.
test system: ATP; test: switch fluorescence ratio, 500 uM ATP over buffer (Cy3 cluster intensity, sum of 5 cycles each) (fold (ratio)); higher = stronger signal-on switching upon ATP binding; sequences stand for … in TCGTCGGCAGCGTCAGATGTGTATAAGAGACAGTTTTTTTTTTTTTTTTTTTTTTTTT…TC; details: aptamer strand: ATP DNA aptamer (quencher-CACCTGGGGGAGTATTGCGGAGGAAGG + anchor), 100 nM annealed; ATP concentration: 500 uM
Outline: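 The quencher-labelled ATP aptamer, at 100 nM, was annealed to Cy3-labelled switching-strand clusters on a modified Illumina MiSeq flow-cell. The clusters were imaged in selection buffer, then after 15 min with 500 uM ATP at 22 °C, and this buffer/ATP cycle ran five times with NaOH stripping and re-annealing between runs. Per-cluster fluorescence ratios, summed target-cycle over summed buffer-cycle Cy3 intensity, were averaged per switch-domain sequence. Clusters outside 100-1000 RFU were excluded.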
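Note: ATP exposure 15 min at 22 °C before imaging.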

Sequence | switch fluorescence ratio
GGGAGCTGAA | 1.04 ± 0.04
GGGAGCTGAG | 1.015 ± 0.0055
GGGAGGAGGA | 0.974 ± 0.026
GGGAGGATGC | 0.993 ± 0.059
GGGAGGCGGG | 0.99 ± 0.019
GGGAGGGAGT | 1.01 ± 0.024
GGGAGGGATG | 1.02 ± 0.024
GGGAGGGCGG | 0.975 ± 0.051
GGGAGGGCGT | 0.981 ± 0.034
GGGAGGGCTT | 1.05 ± 0.092
GGGAGGTCAG | 0.992 ± 0.035
GGGAGGTTGC | 1.09 ± 0.23
GGGAGGTTTT | 1.04 ± 0.084
GGGAGTAGGC | 0.731 ± 0.022
GGGAGTAGGT | 1.008 ± 0.0094
GGGAGTCGGG | 1.01 ± 0.0092
GGGAGTGATG | 0.986 ± 0.019
GGGAGTTAAT | 0.97 ± 0.019
GGGATAACGG | 0.962 ± 0.018
GGGATAAGGA | 0.99 ± 0.044
GGGATAAGGG | 1.01 ± 0.027
GGGATAATTA | 1.01 ± 0.029
GGGATAGAGG | 0.999 ± 0.051
GGGATAGCCG | 1 ± 0.059
GGGATAGGCA | 1.01 ± 0.039

Sequence | switch fluorescence ratio
GGGATAGGGT | 1 ± 0.027
GGGATATAGT | 0.9696 ± 0.0044
GGGATATGAA | 0.992 ± 0.018
GGGATATGGG | 0.995 ± 0.045
GGGATCAGTG | 0.995 ± 0.03
GGGATCATGG | 1.08 ± 0.083
GGGATCCGAC | 1.05 ± 0.041
GGGATCGGGG | 0.988 ± 0.019
GGGATCGGTT | 0.982 ± 0.034
GGGATCTATA | 0.9721 ± 0.0081
GGGATCTATG | 1.02 ± 0.027
GGGATGAACT | 1.01 ± 0.013
GGGATGAAGA | 1 ± 0.013
GGGATGACGA | 0.98 ± 0.042
GGGATGAGGT | 1 ± 0.033
GGGATGGGAG | 1.02 ± 0.038
GGGATGGGGC | 1.04 ± 0.042
GGGATGGGGG | 1 ± 0.043
GGGATGGTGG | 0.991 ± 0.024
GGGATGTGGT | 1.01 ± 0.023
GGGATGTTGG | 1.006 ± 0.0071
GGGATTAACT | 1 ± 0.031
GGGATTAAGA | 0.98 ± 0.026
GGGATTAATG | 1.01 ± 0.015
GGGATTACGT | 1.03 ± 0.029

Sequence | switch fluorescence ratio
GGGATTATTT | 0.972 ± 0.02
GGGATTCAG | 1.0226 ± 0.0002
GGGATTCTTG | 1.01 ± 0.04
GGGATTTCCG | 0.992 ± 0.018
GGGATTTGCG | 1 ± 0.046
GGGATTTGCT | 0.963 ± 0.022
GGGATTTTCC | 0.979 ± 0.044
GGGATTTTCG | 0.98 ± 0.023
GGGATTTTGA | 0.999 ± 0.017
GGGCAAAGGT | 1.09 ± 0.16
GGGCAAGTGT | 1.06 ± 0.034
GGGCACATGG | 1.02 ± 0.029
GGGCAGATGG | 0.988 ± 0.034
GGGCAGCTGG | 0.981 ± 0.042
GGGCAGGCTT | 0.98 ± 0.017
GGGCAGGTAG | 1.03 ± 0.031
GGGCAGTGGG | 1.05 ± 0.074
GGGCATCGAC | 1.05 ± 0.017
GGGCATCTTT | 1 ± 0.06
GGGCATGGAG | 0.992 ± 0.02
GGGCATGTTG | 1.02 ± 0.03
GGGCCACCAG | 1.01 ± 0.032
GGGCCCGGCA | 0.9814 ± 0.0049
GGGCCGTTGC | 0.948 ± 0.029
GGGCCTGGAA | 1.01 ± 0.069

Sequence | switch fluorescence ratio
GGGCCTGGGG | 0.998 ± 0.048
GGGCCTTGGG | 1.03 ± 0.049
GGGCCTTTTT | 0.9864 ± 0.006
GGGCGAAGTC | 0.975 ± 0.03
GGGCGACGGC | 1.04 ± 0.047
GGGCGACGGG | 0.996 ± 0.046
GGGCGAGCTC | 0.9982 ± 0.0061
GGGCGAGGGG | 1.01 ± 0.026
GGGCGCGTTT | 0.9623 ± 0.0072
GGGCGCTAGG | 0.971 ± 0.014
GGGCGCTGGG | 1 ± 0.032
GGGCGGATTT | 1.024 ± 0.008
GGGCGGCGGG | 1.05 ± 0.053
GGGCGGGATG | 0.984 ± 0.037
GGGCGGGTGT | 0.987 ± 0.059
GGGCGGTGGG | 1 ± 0.068
GGGCGTATGT | 0.981 ± 0.023
GGGCGTTGTG | 1.05 ± 0.11
GGGCTAAAAG | 0.97428 ± 3.4e-05
GGGCTAGACG | 0.997 ± 0.085
GGGCTAGTCA | 0.965 ± 0.019
GGGCTATCCG | 0.983 ± 0.024
GGGCTATGGG | 0.997 ± 0.049
GGGCTCATGG | 1.042 ± 0.0061
GGGCTGAAGG | 1.004 ± 0.01

Sequence | switch fluorescence ratio
GGGCTGACAG | 1.035 ± 0.0012
GGGCTGATAG | 1.01 ± 0.025
GGGCTTAACG | 0.982 ± 0.014
GGGCTTATGG | 0.975 ± 0.054
GGGCTTCGTT | 0.9929 ± 0.0074
GGGCTTGGGG | 0.999 ± 0.031
GGGCTTTTTC | 1.02 ± 0.034
GGGGAAAACT | 1.01 ± 0.022
GGGGAAAGTC | 1 ± 0.032
GGGGAAATGG | 1.01 ± 0.025
GGGGAACGGC | 0.963 ± 0.036
GGGGAACGTT | 0.947 ± 0.049
GGGGAACTTC | 1.05 ± 0.045
GGGGAAGCCA | 0.979 ± 0.024
GGGGAAGGCA | 0.946 ± 0.084
GGGGAAGGCC | 1.01 ± 0.018
GGGGAAGTAC | 1.53 ± 0.31
GGGGAATGGC | 1.05 ± 0.1
GGGGAATTTA | 1 ± 0.024
GGGGACATGC | 0.982 ± 0.078
GGGGACCAGT | 0.9845 ± 0.0031
GGGGACCCTG | 0.974 ± 0.029
GGGGACCGGC | 0.954 ± 0.041
GGGGACGAAA | 0.997 ± 0.013
GGGGACGAAT | 1.002 ± 0.0025

Sequence | switch fluorescence ratio
GGGGACGACC | 1.03 ± 0.017
GGGGACGGGC | 1.04 ± 0.075
GGGGACTGGG | 1 ± 0.058
GGGGACTTAG | 0.9854 ± 0.0025
GGGGACTTGG | 1 ± 0.027
GGGGAGACTG | 0.956 ± 0.028
GGGGAGGAAA | 0.999 ± 0.029
GGGGAGGCAC | 0.9854 ± 0.002
GGGGAGGGGA | 1.01 ± 0.04
GGGGAGGGTG | 1.05 ± 0.074
GGGGAGGTTG | 0.991 ± 0.037
GGGGAGGTTT | 0.966 ± 0.02
GGGGAGTCGA | 1.03 ± 0.068
GGGGAGTGAA | 0.992 ± 0.031
GGGGAGTTAC | 1.35 ± 0.44
GGGGATAAGA | 0.985 ± 0.036
GGGGATAAGC | 0.992 ± 0.048
GGGGATACGC | 1.03 ± 0.012
GGGGATACTG | 1.31 ± 0.33
GGGGATCGTT | 1.02 ± 0.021
GGGGATGAGC | 1.04 ± 0.037
GGGGATGCAG | 0.985 ± 0.049
GGGGATGTGC | 1.01 ± 0.04
GGGGATTAAT | 0.99 ± 0.042
GGGGATTACG | 0.984 ± 0.026

Sequence | switch fluorescence ratio
GGGGATTAGG | 0.988 ± 0.015
GGGGATTATG | 0.997 ± 0.046
GGGGATTCAA | 0.988 ± 0.018
GGGGATTGCT | 0.986 ± 0.025
GGGGATTTTG | 0.9746 ± 0.0022
GGGGATTTTT | 1 ± 0.035
GGGGCAAATT | 1.05 ± 0.12
GGGGCAACGG | 1.05 ± 0.12
GGGGCACTGG | 1.03 ± 0.028
GGGGCAGAGG | 0.997 ± 0.043
GGGGCAGGTG | 1.27 ± 0.39
GGGGCATAAG | 1.01 ± 0.013
GGGGCATGAG | 1.04 ± 0.021
GGGGCATTTA | 0.9643 ± 0.0047
GGGGCCAGCT | 0.974 ± 0.043
GGGGCCATTT | 0.99 ± 0.033
GGGGCCCAGG | 1 ± 0.067
GGGGCCGAAT | 1.01 ± 0.021
GGGGCGATTG | 1.02 ± 0.013
GGGGCGCGGA | 1.09 ± 0.12
GGGGCGGAGG | 0.987 ± 0.047
GGGGCGGGGG | 1.02 ± 0.043
GGGGCGTGCA | 1.03 ± 0.034
GGGGCGTTTT | 0.998 ± 0.023
GGGGCTAAGA | 0.993 ± 0.015

Sequence | switch fluorescence ratio
GGGGCTATGT | 1.08 ± 0.14
GGGGCTCATT | 0.983 ± 0.021
GGGGCTGGAG | 1.03 ± 0.063
GGGGCTGTGC | 0.976 ± 0.034
GGGGCTTACG | 0.9893 ± 0.0087
GGGGCTTGCG | 0.948 ± 0.045
GGGGCTTTAA | 1.18 ± 0.35
GGGGCTTTGG | 0.98 ± 0.025
GGGGCTTTTA | 0.97 ± 0.01
GGGGGAAACG | 0.989 ± 0.031
GGGGGAAAGA | 0.989 ± 0.047
GGGGGAAAGC | 0.984 ± 0.049
GGGGGAAAGG | 1 ± 0.025
GGGGGAACAC | 1.05 ± 0.044
GGGGGAAGAT | 1.01 ± 0.074
GGGGGAGGCC | 1.02 ± 0.056
GGGGGAGGGG | 1 ± 0.043
GGGGGAGGTA | 0.977 ± 0.031
GGGGGAGGTC | 0.989 ± 0.021
GGGGGAGTTA | 0.989 ± 0.026
GGGGGATAGT | 0.998 ± 0.032
GGGGGATCGA | 1.04 ± 0.086
GGGGGATCTT | 1 ± 0.03
GGGGGATGG | 0.994 ± 0.016
GGGGGATGTA | 0.948 ± 0.032
